This is an account of results in patent US20140322216A1 (University of Pennsylvania, published 2014).

The target of test [1] is T1, full-length glycosylated recombinant hGPC3 protein expressed in a murine myeloma cell line (human, UniProt P51654 25-559, limits assumed).
T1 construct: Bought protein; also called rhGPC3; full length hGPC3 protein expressed by mammalian cells
In words: direct ELISA on rhGPC3 coated at 1 ug/ml. As to the method: (§1) FIG. 4A depicts the results of immunoblot analysis of binding of scFv to rhGPC3. The antigens including rhGPC3 and GST protein were spotted onto cellulose membrane (10 ng/each). After the blocking step the membrane were incubated with the scFvs antibody in room temperature for 1 h. The binding of scFv to antigen was detected by incubation with mouse anti-V5 mAb following by infrared dye IR680-labeled anti-mouse antibodies. PBS was used as negative control. FIG. 4B depicts results of direct ELISA for affinity determination of scFv 3E11. Two different concentrations of rhGPC3 protein (0.5 and 1.0 ug/ml) were coated and incubated with serial diluted scFv 3E11. For detection, mouse-sourced anti-V5 mAb following HRP-conjugated anti-mouse antibody and SureBlue substrate (measured at 450 nm) was used. FIG. 4C depicts EC50 values for 5 candidate scFvs determined by direct ELISA, Assays were performed twice separately for each scFv.
(§2) After three washing steps with PBS/0.1% Tween-20 (PBST), 300 ul per well of blocking solution (2% milk in PBS pH 7) was added for 2 h at room temperature then washed three tinmes with PBST. Candidate scFv starting at 100 ug/ml were added with serial dilutions, incubated for Ih at room temperature followed by three washing steps with PBST, scFv binding was detected by adding anti-V5 HRP (Invitrmgen), washing ×4 with PBST, washing ×1 with PBS, then adding 50 ul/well of TMB peroxidase substrate (KPL, Gaithersburg Md.) plus peroxidase substrate solution B at 1:1 ratio, then the reaction was stopped using 50 ul of 0.5M H₂SO₄. OD450 was measured using a BioRad 680 microplate reader. For determination of functional affinity, half maximal binding concentration (EC50) was calculated with non-linear regression curve fit algorithm using the software program PRISM (GraphPad Software, San Diego, Calif.). rhGPC3 expressed in a murine myeloma cell line which was commercially obtained from R&D Systems (Minneapolis Minn.).
(In an ELISA, binding on a coated surface is turned into a signal by an enzyme label.)

The target in test [2] is T1, full-length glycosylated recombinant …. In words: direct ELISA, rhGPC3 coated at 0.5 ug/ml; rhGPC3 at 0.5 ug/ml. How it is done:
as §1
(§3) After three washing steps with PBS/0.1% Tween-20 (PBST), 300 ul per well of blocking solution (2% milk in PBS pH 7) was added for 2 h at room temperature then washed three tinmes with PBST. […] OD450 was measured using a BioRad 680 microplate reader. […]

Another test addresses GST protein (UniProt P08515 1-218 = GST). In words: dot blot, 10 ng GST per spot, scFv detected with anti-V5 mAb and IR680 anti-mouse. How it is done:
as §1

Test [3] deals with T1, full-length glycosylated recombinant …. In words: direct ELISA on rhGPC3, lower coat (open circles; key prints '0.5mg/ml', legend says 0.5 ug/ml). How it is done:
as §1, §3

Test [4] has the same target. In words: ELISA on rhGPC3 precoated at 1 ug/ml; drawn table headed 'Table 1. Kd of scFv candidates', column EC50 (nM).
For test [5] the target is unchanged. In words: direct ELISA, rhGPC3 coated at 1 ug/ml; rhGPC3 at 1 ug/ml. As to the method:
as §1, §3

Test [6] shares this target. In words: direct ELISA on rhGPC3 coated at 0.5 ug/ml. How it is done:
as §1, §2

Chain of GST protein (P08515 whole entry): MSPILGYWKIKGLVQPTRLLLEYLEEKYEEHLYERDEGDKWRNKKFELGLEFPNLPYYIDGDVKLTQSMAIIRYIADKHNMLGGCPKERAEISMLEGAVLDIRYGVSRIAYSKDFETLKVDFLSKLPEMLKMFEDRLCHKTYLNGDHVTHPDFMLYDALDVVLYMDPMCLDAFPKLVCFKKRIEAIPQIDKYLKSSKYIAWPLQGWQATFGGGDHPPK
T1 sequence (P51654 25-559 limits assumed): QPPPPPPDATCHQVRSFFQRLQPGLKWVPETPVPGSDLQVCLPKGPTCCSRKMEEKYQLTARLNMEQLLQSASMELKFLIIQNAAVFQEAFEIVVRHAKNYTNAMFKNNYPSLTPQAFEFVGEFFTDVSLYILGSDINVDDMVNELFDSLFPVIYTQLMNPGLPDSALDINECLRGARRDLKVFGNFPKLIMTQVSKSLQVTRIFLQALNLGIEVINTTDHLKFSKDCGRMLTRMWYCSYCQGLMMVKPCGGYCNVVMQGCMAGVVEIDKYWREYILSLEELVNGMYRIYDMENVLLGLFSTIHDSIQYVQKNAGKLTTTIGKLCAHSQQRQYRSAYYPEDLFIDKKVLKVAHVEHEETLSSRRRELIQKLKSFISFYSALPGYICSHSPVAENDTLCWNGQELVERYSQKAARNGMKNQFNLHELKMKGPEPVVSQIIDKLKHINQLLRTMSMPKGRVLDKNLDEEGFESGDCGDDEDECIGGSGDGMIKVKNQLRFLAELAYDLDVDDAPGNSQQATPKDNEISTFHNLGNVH

B1: scFv 3E11 (scFv, V domains shown)
VH: QVQLVQSGGGVVQPGRSLRLSCAASGFTFSSYGLHWVRQAPGKGLEWVAAISYDGSKKYYADSVKGRLTISRDNSKNTLYLQMNSLSPEDTALYFCARGWFVEPLSWGQGTLVTVSS
VL: not shown
notes: Human scFv secreted by yeast (p416-BCCR vector), one polypeptide; purified on nickel/anti-HIS and detected with anti-V5, so it carries His and V5 tags
Consider B1, for which the EC50 (commonly the concentration that produces a half-maximal response) in test [1] is 11.1 nM; in test [2], 11 nM; in test [4], 12 nM; in test [5], 14 nM; in test [6], 12 nM. In addition, the binding result in the test with GST protein is on record as “no binding”. Moreover, the EC50 (read off the curve) (as a rule, the concentration that produces a half-maximal response) in test [3] is ~10 nM.

B2: scFv 3D8 (scFv, V domains shown)
VH: QVQLVQSGGGLAQPGGSLRLSCAASGSSFSTFVLSWVRQTPGKGLQWVSTISGSGTSTYYADSVKGRFTVSRDNAKNTQYLQMNSLRAEDTAIYYCARHKSFGVQWLWGQGALVVRLL
VL: VHIVMTQSPLSLPVTLGQPASISCWSSQSLVYGDGNTYLNWFQQRPGQSPRRLIYKVSNRDSGVPDRFSGSGSGTDFTLKISRVEAEDVGVYYCMQGTHWPPGTFGGGTKLEIK
notes: Human scFv secreted by yeast, one polypeptide with His and V5 tags
Take B2: the EC50 was 94.7 nM in test [1] and 106 nM in test [6].

B3: scFv 2G9 (scFv, V domains shown)
VH: QVQLQESGPGLVKPSETLSLSCTVSGGSISSSSYYWAWIRQPPGKGLEWIGNIYYSGSTYYNPSLKSRVTISVDTSKNQFSLKLSSVTAADTAVYYCARFPLIRGYRYRYDEYWGQGTLVTVSS
VL: DIVMTQSPLSLPVTPGEAASISCRSSQSLLHRDGYHYLNWFLQKPGQSPQLLIYLGSNRASGVPDRFSGSGSGTDFTLKISRVEAEDVGVYYCMQAPQTPRTLLGQGTKLEIK
notes: as for B2
Consider B3, for which, in test [1], the EC50 came out at 111 nM. Besides, the binding result with GST protein is given as “no binding”.

B4: scFv 4G5 (scFv, V domains shown)
VH: QVQLQESGLGLVKPSETLSLTCAVSGYSITSGYYWGWIRQTPGKGLEWIGRIYYGGSTHYNPSLQSRVTISVDTAKNQFSLKLSSVTAADTAVYYCARDRNYQSLSGYCLDYWGQGKVVTVSS
VL: EIVLTQSPGTLSVSPGERATLSCRASQSVSSHIAWYQQKPGQAPRLLIHGASTRATGVPARFSGSGSGTEFTLTISSLQSEDFAVYYCQQYNKWPPEYTFGQGTKLEIK
notes: as for B2
In the case of B4, the binding result with GST protein is recorded as “no binding”. The EC50 in test [6] was 38.8 nM.
